Numbering of substitutions follows the chain as printed.
B1: anti-human CD47/PD-L1 bispecific antibody 2MW1531-m6 (bispecific antibody)
heavy 1: EVQLVQSGAEVKKPGASVKVSCKASGYKFTNYVMSWVRQAPGQRLEWMGYINPYNDAIKYNEKFTGRVTITRDTSASTAYMELSSLRSEDTAVYYCAREGDFYANYGRLGFAYWGQGTLVTVSSASTKGPSVFPLAPCSRSTSESTAALGCLVKDYFPEPVTVSWNSGALTSGVHTFPAVLQSSGLYSLSSVVTVPSSSLGTQTYTCNVDHKPSNTKVDKRVESKYGPPCPPCPAPEFLGGPSVFLFPPKPKDTLMISRTPEVTCVVVDVSQEDPEVQFNWYVDGVEVHNAKTKPREEQYNSTYRVVSVLTVLHQDWLNGKEYKCKVSNKGLPSSIEKTISKAKGQPREPQVYTLPPSQKEMTKNQVSLTCLVKGFYPSDIAVEWESNGQPENNYKTTPPVLDSDGSFFLYSKLTVDKSRWQEGNVFSCSVMHEALHNRYTQKSLSLSLGK
heavy 2: EVQLVQSGAEVKKPGATVKISCKVSGFNIKDIYMHWVQQAPGKGLEWMGRIDPANANTKYDPKFQDRVTITADTSTNTAYMELSSLRSEDTAVYYCASGQLGPLGFDYWGQGTTVTVSSASTKGPSVFPLAPCSRSTSESTAALGCLVKDYFPEPVTVSWNSGALTSGVHTFPAVLQSSGLYSLSSVVTVPSSSLGTQTYTCNVDHKPSNTKVDKRVESKYGPPCPPCPAPEFLGGPSVFLFPPKPKDTLMISRTPEVTCVVVDVSQEDPEVQFNWYVDGVEVHNAKTKPREEQYNSTYRVVSVLTVLHQDWLNGKEYKCKVSNKGLPSSIEKTISKAKGQPREPQVYTLPPSQEEMTKNQVSLTCLVKGFYPSDIAVEWESNGQPENNYKTTPPVLDSDGSFFLYSKLTVDKSRWQEGNVFSCSVMHEALHNHYTQESLSLSLGK
VL: DIQMTQSPSSLSASVGDRVTITCRASQDISNYLNWYQQKPGKAPKLLLYYTSRLHSGVPSRFSGSGSGTDYTLTISSLQPEDFATYFCQQGATRPYTFGGGTKVEIKRTVAAPSVFIFPPSDEQLKSGTASVVCLLNNFYPREAKVQWKVDNALQSGNSQESVTEQDSKDSTYSLSSTLTLSKADYEKHKVYACEVTHQGLSSPVTKSFNRGEC
notes: Knobs-into-holes with a common light chain
B2: anti-human CD47/PD-L1 bispecific antibody 2MW1531-m1 (bispecific antibody)
heavy 1: B1 heavy 1
heavy 2: B1 heavy 2
VL: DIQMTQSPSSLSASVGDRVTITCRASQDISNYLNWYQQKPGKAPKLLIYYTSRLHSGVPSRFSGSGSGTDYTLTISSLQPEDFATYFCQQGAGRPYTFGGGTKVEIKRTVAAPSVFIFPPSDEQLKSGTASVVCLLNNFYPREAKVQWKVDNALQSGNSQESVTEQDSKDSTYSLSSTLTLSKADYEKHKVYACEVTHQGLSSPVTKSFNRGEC
notes: as for B1
B3: anti-human CD47/PD-L1 bispecific antibody 2MW1531-m2 (bispecific antibody)
heavy 1: B1 heavy 1
heavy 2: B1 heavy 2
VL: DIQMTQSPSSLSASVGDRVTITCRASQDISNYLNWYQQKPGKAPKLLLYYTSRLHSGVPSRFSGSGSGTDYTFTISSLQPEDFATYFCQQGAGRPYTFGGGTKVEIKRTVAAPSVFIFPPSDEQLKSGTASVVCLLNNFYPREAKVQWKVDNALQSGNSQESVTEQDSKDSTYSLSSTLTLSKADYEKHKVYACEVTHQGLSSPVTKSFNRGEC
notes: as for B1
B4: anti-human CD47/PD-L1 bispecific antibody 2MW1531-m5 (bispecific antibody)
heavy 1: B1 heavy 1
heavy 2: B1 heavy 2
VL: B1 VL with A92D, T93G
notes: as for B1
B5: anti-human CD47/PD-L1 bispecific antibody 2MW1531-m4 (bispecific antibody)
heavy 1: B1 heavy 1
heavy 2: B1 heavy 2
VL: B1 VL with S30T, T93G
notes: as for B1
B6: anti-human CD47/PD-L1 bispecific antibody 2MW1531-p (bispecific antibody)
heavy 1: B1 heavy 1
heavy 2: B1 heavy 2
VL: DIQMTQSPSSLSASVGDRVTITCRASQDISNYLNWYQQKPGKAPKLLLYYTSRLHSGVPSRFSGSGSGTDYTLTISSLQPEDFATYFCQQGAGRPYTFGGGTKVEIK
notes: Knobs-into-holes: heavy chain A hz140-H-A (anti-CD47), heavy chain B hz182-H-B (anti-PD-L1), common light chain
B7: anti-human CD47/PD-L1 bispecific antibody 2MW1531-m7 (bispecific antibody, human IgG4 S228P, kappa)
heavy 1: B1 heavy 1
heavy 2: B1 heavy 2
VL: B1 VL with T93G, R94F
notes: as for B1
B8: hz140-Hm13/hz182-Lm5 (antibody, V domains shown)
VH: EVQLVQSGAEVKKPGASVKVSCKASGYKFTNYVMSWVRQAPGQRLEWMGYINPYNDAIKYNEKFTGRVTITRDTSASTAYMELSSLRSEDTAVYYCAREGDFYANYGRLGFAYWGQGTLVTVSS
VL: DIQMTQSPSSLSASVGDRVTITCRASQDISNYLNWYQQKPGKAPKLLLYYTSRLHSGVPSRFSGSGSGTDYTLTISSLQPEDFATYFCQQGDGRPYTFGGGTKVEIKR
B9: hz140-Hm13/hz182-L (antibody, V domains shown)
VH: B8 VH
VL: B6 VL
B10: hz140-Hm13/hz182-Lm6 (antibody, V domains shown)
VH: B8 VH
VL: B8 VL with D92A, G93T
B11: hz140-Hm13/hz182-Lm9 (antibody, V domains shown)
VH: B8 VH
VL: B8 VL with G93T, R94F
B12: hz140-Hm13/hz182-Lm10 (antibody, V domains shown)
VH: B8 VH
VL: B8 VL with F83I, D92A, R94F
B13: hz140-Hm13/hz182-Lm8 (antibody, V domains shown)
VH: B8 VH
VL: B8 VL with D92A, Y96R
notes: also called h182Lmut8
B14: hz140-Hm13/hz182-Lm11 (antibody, V domains shown)
VH: B8 VH
VL: B8 VL with F83I, G93T, R94F

Molecular target: T1, CD47 on the surface of human red blood cells (human, UniProt Q08722 19-323)
T1 construct: whole, on cells; Same protein as m3, on red blood cells; also called hRBC; RBC
Assay: FACS, human red blood cells, antibody 1000 nM
Procedure: (§1) In the experiment of analyzing the binding to human red blood cells, the antibody was used at a concentration of 1000 nM; and in the experiment of analyzing the binding to tumor cells, the antibody was used at a concentration of 100 nM.

Row | Binding to human red blood cells (MFI) | Binder
1 | 912 | B1
2 | 888 | B2
3 | 799 | B3
4 | 807 | B4
5 | 903 | B5

Molecular target: PD-L1 (human, UniProt Q9NZQ7 19-239, limits assumed)
Sequence (Q9NZQ7 19-239 limits assumed): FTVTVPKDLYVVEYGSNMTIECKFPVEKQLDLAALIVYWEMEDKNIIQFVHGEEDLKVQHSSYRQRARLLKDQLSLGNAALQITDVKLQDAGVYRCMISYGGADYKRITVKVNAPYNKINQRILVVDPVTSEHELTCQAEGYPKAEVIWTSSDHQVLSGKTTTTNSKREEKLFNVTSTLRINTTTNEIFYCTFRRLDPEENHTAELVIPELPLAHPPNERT
Assay: Fortebio BLI

Row | Kd [nM] | koff [s⁻¹] | kon [M⁻¹ s⁻¹] | Binder
6 | 0.474 | 0.000147 | 310000 | B6
7 | 0.917 | 0.00021 | 230000 | B7
8 | 1.73 | 0.000496 | 287000 | B1
9 | 1.59 | 0.000387 | 243000 | B2
10 | 3.26 | 0.000696 | 213000 | B3
11 | 1.02 | 0.000357 | 347000 | B4
12 | 3.78 | 0.000707 | 187000 | B5

Molecular target: T2, recombinant antigen of the extracellular region of CD47 (Sino Biological, Cat: 12283-H08H) (human, UniProt Q08722 19-139)
T2 construct: extracellular domain; also called recombinant CD47 extracellular region; CD47 recombinant protein
Assay: Fortebio BLI

Row | Kd [nM] | koff [s⁻¹] | kon [M⁻¹ s⁻¹] | Binder
13 | 8.56 | 0.00131 | 153000 | B6
14 | 62.1 | 0.00814 | 131000 | B7
15 | 84.5 | 0.00879 | 104000 | B1
16 | 22.5 | 0.00213 | 94600 | B2
17 | 81 | 0.00678 | 83700 | B3
18 | 10.8 | 0.00101 | 93600 | B4
19 | 26.5 | 0.00321 | 121000 | B5

Molecular target: T1, CD47 on the surface of human red blood …
Assay: FACS, RBC, 200 nM
Procedure: (§2) The difference between the binding of the mutant to CD47 on the surface of tumor cells and CD47 on the surface of red blood cells was evaluated.

Row | FACS (MFI) | Binder
20 | 3310 | B8
21 | 2060 | B9
22 | 695 | B10
23 | 1750 | B11
24 | 326 | B12
25 | 40800 | B13
26 | 321 | B14

Molecular target: T3, CD47 on the surface of tumor cells (human, UniProt Q08722 19-323)
T3 construct: whole, on cells; Same protein as m4; also called CD47 antigen on the surface of U937 and CCRF cells; SKOV-3
Assay: FACS, tumor cells, 2 nM
Procedure: as §2

Row | FACS (MFI) | Binder
27 | 39900 | B8
28 | 25800 | B9
29 | 15900 | B10
30 | 16400 | B11
31 | 19000 | B12
32 | 39100 | B13
33 | 20100 | B14

Molecular target: T2, recombinant antigen of the …
Assay: Fortebio BLI, antibody on AHC sensor, CD47 extracellular region 100 nM;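 note: antibody held on the sensor through anti-human Fc capture, CD47 antigen in solution, association and dissociation phases each lasting 300 s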
Procedure: The affinity between the obtained mutant antibody and the CD47 recombinant protein was determined by Fortebio. The antibody was immobilized on the surface of a sensor with the anti-human Fc capture antibody (AHC Sensor), and reacted with the recombinant antigen of the extracellular region of CD47 (with a working concentration of 100 nM) in the liquid phase. The duration for binding and dissociation was both 300 seconds. The kinetic parameters were determined.

Row | Kd [nM] | koff [s⁻¹] | kon [M⁻¹ s⁻¹] | Binder
34 | 6.2 | 0.00163 | 263000 | B9

Molecular target: T2, recombinant antigen of the …
Assay: Fortebio BLI, recombinant CD47

Row | Kd [nM] | kon [M⁻¹ s⁻¹] | Binder
35 | 667 | 79900 | B8
36 | 5.97 | 125000 | B9
37 | 12.5 | 114000 | B10
38 | 38.9 | 132000 | B11
39 | 5.14 | 176000 | B12
40 | 12.9 | 234000 | B13
41 | 53.1 | 103000 | B14

Molecular target: T3, CD47 on the surface of tumor cells
Assay: FACS, SKOV-3 tumor cells (no PD-L1), antibody 100 nM
Procedure: as §1

Row | Binding to tumor cells (MFI) | Binder
42 | 35400 | B6
43 | 28200 | B7
44 | 24700 | B1
45 | 33300 | B2
46 | 29900 | B3
47 | 30900 | B4
48 | 31100 | B5

Reference: patent publication US20230406921A1 (MABWELL SHANGHAI BIOSCIENCE, published 2023)
